Data reported in article PMC3811995, “Zebavidin - An Avidin-Like Protein from Zebrafish” (PLoS ONE, 2013).
Values joined by “and” are separate entries in the source; they are usually repeats but may differ in a detail not shown here. Equal values may be shown once.

Columns and labels:
[1] = molecular target: T1, zebavidin (Danio rerio, UniProt E7F650); test: crystal structure at […] Å; direct and competitive ITC ([…] °C); [3H]biotin dissociation; native MS; DSC; format: binding; parameters: gene avd; first 30 amino acids of the ORF replaced with OmpA signal peptide from Bordetella avium (secreted core); homotetramer
T1 sequence (E7F650 31-154): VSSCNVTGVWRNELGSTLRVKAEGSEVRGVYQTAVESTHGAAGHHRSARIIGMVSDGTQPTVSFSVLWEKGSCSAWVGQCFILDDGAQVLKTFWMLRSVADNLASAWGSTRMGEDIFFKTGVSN

[2] = molecular target: zebavidin (recombinant core, expressed in E. coli) (zebrafish (Danio rerio)); test: native MS; ESI FT-ICR, 10 µM zebavidin (monomer) in 10 mM ammonium acetate, pH 7, without biotin
[3] = molecular target: zebavidin (recombinant core, expressed in E. coli) (zebrafish (Danio rerio)); test: native MS; ESI FT-ICR, 10 µM zebavidin in 500 mM ammonium acetate, in the absence and presence of 30 µM biotin
[4] = molecular target: zebavidin (recombinant core, expressed in E. coli) (zebrafish (Danio rerio)); test: native MS; ESI FT-ICR, 10 µM zebavidin in 10 mM ammonium acetate, pH 7, with 30 µM biotin (3-fold molar excess)
[5] = molecular target: zebavidin (recombinant core, expressed in E. coli) (zebrafish (Danio rerio)); test: SEC; Superdex200 10/300GL, 4 °C, 50 mM sodium phosphate, 2 mM EDTA, pH 7 with 0, 100 or 650 mM NaCl, with and without biotin
[6] = molecular target: zebavidin (recombinant core, expressed in E. coli) (zebrafish (Danio rerio)); test: crystal structure; zebavidin in complex with biotin, 2.4 Å, space group P2(1)2(1)2, 16 monomers (four homotetramers) in the asymmetric unit
[7] = molecular target: T1, zebavidin; test: ITC ([…] °C); format: binding; parameters: gene avd; first 30 amino acids of the ORF replaced with OmpA signal peptide from Bordetella avium (secreted core)
[8] = molecular target: T1, zebavidin; test: fluorescence quenching titration ([…] °C); format: binding; parameters: gene avd; first 30 amino acids of the ORF replaced with OmpA signal peptide from Bordetella avium (secreted core)

O=C(O)CCCC[C@@H]1SC[C@@H]2NC(=O)N[C@@H]21 [BTN, biotin]
Kd [1]: 4.8/4.4 x10^-9 M

zebavidin (recombinant core, expressed in E. coli) (natural protein)
stoichiometry N [2]: 2 and 4
stoichiometry N [3]: 4
stoichiometry N [4]: 4
stoichiometry N [5]: 4
stoichiometry N [6]: 4

C[C@@H]1NC(=O)N[C@@H]1CCCCCC(=O)O [desthiobiotin]
Kd [7]: 660/700 x10^-9 M

ArcDia BF560
Kd [8]: 140 nM
